From paper PMC10611751, “Dynamic interactions between E-cadherin and Ankyrin-G mediate epithelial cell polarity maintenance” (Nature Communications, 2023) come the findings set out here.

Values joined by “and” are separate entries in the source; they are usually repeats but may differ in a detail not shown here. Equal entries are not always repeated.

T1: full-length β-catenin 1-781 (mouse, UniProt Q02248 1-781)
T1 construct: also called β-catenin FL; source: E. coli BL21 (DE3), purified (Ni-NTA, SEC)
T1 sequence (looked up): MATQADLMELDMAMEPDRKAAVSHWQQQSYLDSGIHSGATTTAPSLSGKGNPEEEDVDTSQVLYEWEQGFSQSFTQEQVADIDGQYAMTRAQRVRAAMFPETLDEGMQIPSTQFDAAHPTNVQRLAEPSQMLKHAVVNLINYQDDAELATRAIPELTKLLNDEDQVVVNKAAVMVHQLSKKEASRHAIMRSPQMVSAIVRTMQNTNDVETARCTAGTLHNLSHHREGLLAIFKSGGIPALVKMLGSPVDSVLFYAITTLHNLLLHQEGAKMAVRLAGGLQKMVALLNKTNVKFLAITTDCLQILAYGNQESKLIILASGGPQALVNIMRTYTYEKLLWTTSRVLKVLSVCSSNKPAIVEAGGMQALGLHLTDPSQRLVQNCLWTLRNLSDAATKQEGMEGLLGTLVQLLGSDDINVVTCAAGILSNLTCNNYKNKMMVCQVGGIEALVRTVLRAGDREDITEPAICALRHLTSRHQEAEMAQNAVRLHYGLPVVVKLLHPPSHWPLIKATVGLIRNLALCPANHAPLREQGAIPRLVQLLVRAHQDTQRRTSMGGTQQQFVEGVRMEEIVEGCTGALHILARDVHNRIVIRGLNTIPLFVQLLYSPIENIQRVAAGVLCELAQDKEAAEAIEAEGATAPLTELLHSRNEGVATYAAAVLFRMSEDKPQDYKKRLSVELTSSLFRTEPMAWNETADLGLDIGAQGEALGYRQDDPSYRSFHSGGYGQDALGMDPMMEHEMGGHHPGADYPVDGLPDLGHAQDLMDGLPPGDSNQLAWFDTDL

B1: E-cadherin C-terminal domain (residues 734-884) (domain or fragment)
chain: not shown
notes: The ITC methods name 'Trx-E-cadherin'; 15N-labelled for the HSQC titration; also called E-cadherin CTD; CTD; source: E. coli BL21 (DE3), purified (Ni-NTA, SEC); not shown: Trx, N-terminal, kept; His6, N-terminal, kept
B2: E-cadherin residues 755-770 (site-1) (domain or fragment, mouse, UniProt P09803 755-770, looked up)
chain: YYYDEEGGGEEDQDFD
notes: E-cadherin, mouse, residues 755-770; also called E-cadherin site-1; source: E. coli BL21 (DE3), purified (Ni-NTA, SEC); not shown: Trx, N-terminal, kept; His6, N-terminal, kept
B3: Ankyrin-G 24 ANK repeats (residues 38-855) (domain or fragment, UniProt O70511 38-855, looked up)
chain: KSDANASYLRAARAGHLEKALDYIKNGVDVNICNQNGLNALHLASKEGHVEVVSELLQREANVDAATKKGNTALHIASLAGQAEVVKVLVTNGANVNAQSQNGFTPLYMAAQENHLEVVRFLLDNGASQSLATEDGFTPLAVALQQGHDQVVSLLLENDTKGKVRLPALHIAARKDDTKAAALLLQNDTNADIESKMVVNRATESGFTPLHIAAHYGNINVATLLLNRAAAVDFTARNDITPLHVASKRGNANMVKLLLDRGAKIDAKTRDGLTPLHCGARSGHEQVVEMLLDRAAPILSKTKNGLSPLHMATQGDHLNCVQLLLQHNVPVDDVTNDYLTALHVAAHCGHYKVAKVLLDKKANPNAKALNGFTPLHIACKKNRIRVMELLLKHGASIQAVTESGLTPIHVAAFMGHVNIVSQLMHHGASPNTTNVRGETALHMAARSGQAEVVRYLVQDGAQVEAKAKDDQTPLHISARLGKADIVQQLLQQGASPNAATTSGYTPLHLSAREGHEDVAAFLLDHGASLSITTKKGFTPLHVAAKYGKLEVASLLLQKSASPDAAGKSGLTPLHVAAHYDNQKVALLLLDQGASPHAAAKNGYTPLHIAAKKNQMDIATSLLEYGADANAVTRQGIASVHLAAQEGHVDMVSLLLSRNANVNLSNKSGLTPLHLAAQEDRVNVAEVLVNQGAHVDAQTKMGYTPLHVGCHYGNIKIVNFLLQHSAKVNAKTKNGYTPLHQAAQQGHTHIINVLLQNNASPNELTVNGNTALAIARRLGYISVVDTLKVVTEEIMTTTTITEKHKMNVPETMNEVLDMS
notes: Ankyrin-G, 24 ANK repeats, residues 38-855; The ITC methods name 'Trx-AnkG R1-24'; also called AnkG R1-24; AnkG ANK repeats; source: E. coli BL21 (DE3), purified (Ni-NTA, SEC); not shown: Trx, N-terminal, kept; His6, N-terminal, kept
B4: E-cadherin residues 828-842 (site-2) (domain or fragment, mouse, UniProt P09803 828-842, looked up)
chain: PYDSLLVFDYEGSGS
notes: For the methyl-TROSY NMR fused to the N-terminus of AnkG R8-24; also called E-cadherin site-2; source: E. coli BL21 (DE3), purified (Ni-NTA, SEC); not shown: Trx, N-terminal, kept; His6, N-terminal, kept
B5: E-cadherin 828-884 (including both site-2 and site-3) (domain or fragment)
chain: not shown
notes: source: E. coli BL21 (DE3), purified (Ni-NTA, SEC); not shown: Trx, N-terminal, kept; His6, N-terminal, kept
B6: E-cadherin residues 854-869 (site-3) (domain or fragment, mouse, UniProt P09803 854-869, looked up)
chain: ESDQDQDYDYLNEWGN
notes: E-cadherin, mouse, residues 854-869; also called E-cadherin site-3; source: E. coli BL21 (DE3), purified (Ni-NTA, SEC); not shown: Trx, N-terminal, kept; His6, N-terminal, kept

Holding throughout (conditions): both partners purified
In test [1] the target is T1, full-length β-catenin 1-781. The test is described as follows: SEC-MALS; analytical gel filtration with static light scattering; AnkG R1-24, E-cadherin CTD and β-catenin 1-781 mixed at 1:1:1, 2:1:1, 3:1:1 and 4:1:1 molar ratios; also E-cadherin CTD with β-catenin 1-781 alone. On the technique in general: In gel filtration, larger molecules generally elute earlier.
Test [2] addresses B3. The test is described as follows: ITC; E-cadherin proteins in the syringe (e.g. 200 μM Trx-E-cadherin) titrated into AnkG in the cell (e.g. 20 μM Trx-AnkG R1-24); 25 °C; 50 mM Tris, 100 mM NaCl, 1 mM EDTA, 1 mM DTT, pH 7.8; one-site binding model. A general note: In ITC the heat of successive injections is recorded.
The target in test [3] is B1. The test is described as follows: SEC-MALS; FPLC coupled with static light scattering; 70 μM E-cadherin with 70, 140, 210 or 280 μM AnkG (molar ratios 1:1 to 1:4); Superdex 200 increase; 50 mM Tris, 100 mM NaCl, 1 mM EDTA, 1 mM DTT, pH 7.8.
Test [4] deals with T2, E-cadherin CTD–β-catenin complex (mouse, UniProt P09803 734-884; Q02248 1-781).
T2 construct: Formed beforehand for the ITC titration to AnkG R1-24; in the light scattering experiment the three proteins were mixed together; source: E. coli BL21 (DE3), purified (Ni-NTA, SEC)
T2 sequence (P09803 734-884, one chain of several): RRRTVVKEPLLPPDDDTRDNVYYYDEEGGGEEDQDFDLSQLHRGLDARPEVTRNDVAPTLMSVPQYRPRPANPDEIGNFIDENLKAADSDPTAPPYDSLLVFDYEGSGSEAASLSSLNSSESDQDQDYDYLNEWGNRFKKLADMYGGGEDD
Briefly: SEC-MALS; analytical gel filtration with static light scattering; AnkG R1-24, E-cadherin CTD and β-catenin 1-781 mixed at 1:1:1, 2:1:1, 3:1:1 and 4:1:1 molar ratios; also E-cadherin CTD with β-catenin 1-781 alone.

The target of test [5] is B3. The test is described as follows: SEC-MALS; FPLC coupled with static light scattering; 70 μM E-cadherin with 70, 140, 210 or 280 μM AnkG (molar ratios 1:1 to 1:4); Superdex 200 increase; 50 mM Tris, 100 mM NaCl, 1 mM EDTA, 1 mM DTT, pH 7.8.

Take B1: the binding result in test [1] is given as “binds”. In test [2], the Kd is around 1300 nM and the “stoichiometry N” value is around 0.22. As for B2, the Kd in test [2] is around 900 nM.

As to B3, the “stoichiometry N” value is 1 AnkG R1-24 per E-cadherin CTD and 2 AnkG R1-24 per E-cadherin CTD in test [3]; 1 to 2 AnkG R1-24 per E-cadherin CTD and β-catenin in test [4]. The molecule B4 gave a Kd in test [2] of around 1900 nM. With B5, the “stoichiometry N” value in test [5] was 1. The molecule also had a Kd in test [2] of around 1900 nM. For the molecule B6, the Kd in test [2] was around 1800 nM.

Broadly, the Kd is the constant that tells how readily two partners part at equilibrium. Low values mean tighter binding, high ones weaker binding. The term stoichiometry N denotes the number of molecules, sites or subunits per partner or assembly.
